Measured values taken from patent US20250122539A1, “LARGE SCALE PRODUCTION OF DIVARIN, DIVARINIC ACID AND OTHER ALKYL RESORCINOLS BY FERMENTATION” (priority 2021, published 2025).

Experiments:
[1] = Partitioning of olivetolic acid between organic overlay and aqueous culture phase (shake flask, HPLC); assay type: physicochemical; settings: YP + 2% galactose culture
Protocol: Precultures of LSC3-2 and LSC3-18 were inoculated from YPD streak plates and grown in 30 ml of YP+2% (w/v) glucose in baffled 250 ml shake flasks for approximately 18 hours overnight at 30° C. with 200 rpm shaking. Baffled 250 ml shake flasks containing 30 mL of YP+2% (w/v) galactose, 5 mL of IPM or diethyl sebacate, and 0.04% (w/v) hexanoic acid, were inoculated with 1 mL of preculture and grown for at 30° C. with 200 rpm shaking. After 24 and 48 hours, samples of cell culture broth plus overlay were sampled into microcentrifuge tubes and stored at −20° C. at least overnight. Sample tubes were thawed and aqueous sample and overlay sample were pipetted into plates for HPLC analysis. Overlay samples were diluted 1:1 v/v with methanol in the HPLC plate prior to analysis.
Total olivetol equivalents are defined as the concentration of olivetol in mg/L, plus the concentration of olivetolic acid in mg/L multiplied by the ratio of the molecular weight of olivetol to olivetolic acid.

[2] = Partitioning of divarinic acid and divarin into organic solvent overlays (96 well deepwell plate, HPLC); assay type: physicochemical; settings: compared with olivetolic acid and olivetol
Protocol: Several monoester and one diester overlay candidate were compared to IPM for production of divarinic acid and divarin. LSC3-13 precultures were inoculated from YPD streak plates and grown in 300 μL Delft medium+0.79 g/L complete supplement mixture (CSM) (ForMedium, Norfolk, UK)+2% (w/v) glucose in round-bottom square well 96 well deepwell plates for approximately 18 hours overnight at 30° C. with 950 rpm shaking in an Infors plate shaker. 96 well deepwell plate wells containing 300 μL of Delft medium+CSM+2% (w/v) glucose, 60 μL of different overlay solvents, and 0.08% (w/v) butyric acid, were inoculated with 10 μL of preculture and grown for 30° C. with 950 rpm shaking. After 48 hours, the aqueous layer and overlay were sampled on a Bravo automated liquid handling platform (Agilent) and samples from the aqueous and organic overlay phases were subjected to HPLC analysis to measure divarinic acid and divarin production.

[3] = system: hexanoic acid; assay: Two plasmid screening system for relative AAE activity, hexanoic acid feeding; assay type: cell-based, Saccharomyces cerevisiae; settings: average production, LSC3-297/pLOA-049 plus AAE plasmid, Delft medium pH 6.5, 3.44 mM hexanoic acid, 48 hours
Excerpt: (§1) In order to perform in vivo screening in Saccharomyces cerevisiae for acyl activating enzyme (AAE) variants with enhanced activity and/or expression, a two plasmid screening system was employed to generate an artificial bottleneck in AAE activity. This bottleneck was generated by natural copy number variation of the two plasmids, with a multi-copy 2 micron episomal plasmid, pLOA-049, harboring an olivetol synthase homologue from C. sativa (CsTKS) fused with a T2A self-cleaving peptide (Kearsey et al., FEBS J. 287:1511-1524, 2020) to a gene encoding olivetol acid cyclase from C. sativa (CsOAC), and a lower copy centromeric plasmid with an autonomous replicating sequence (CEN/ARS) harboring different acyl activating enzymes/acyl-CoA synthetases from different organisms. Markers employed on the 2 micron plasmid were orotidine-5′-phosphate decarboxylase from S. cerevisiae (URA3) and on the CEN/ARS plasmid, the multifunctional histidine biosynthesis gene HIS4 from S. cerevisiae. The cassette architecture in the plasmids was based on integrated cassettes in production strain LSC3-2, with a pGAL1-10 bidirectional promoter driving expression of CsTKS and CsOAC from pGAL1 with a S. cerevisiae CYC1 terminator, and insulated downstream of pGAL10 by a S. cerevisiae GRE3 terminator. Likewise on the CEN/ARS plasmid, a bidirectional pGAL1-10 promoter drives expression of CsAAE1 from pGAL10 with a S. cerevisiae GRE3 terminator, and is insulated downstream of pGAL1 by a S. cerevisiae CYC1 terminator.
(§2) To screen activity of AAE variants, first a CEN/ARS containing plasmid expressing AAEs co-transformed with the 2 micron plasmid expressing CsTKS translationally fused to CsOAC via the T2A self-cleaving peptide into strain LSC3-297 using the transformation method described by Gietz and Schiestl (Nat. Protocols 2:31-34, 2007). Double plasmid transformants were selected on YNB agar with 2% (w/v) glucose and CSM minus histidine and minus uracil (CSM-His-Ura, Sunrise Science Products) and grown in a 30° C. incubator for approximately 48 hours or at room temperature for approximately 72 hours. Individual colonies were picked into wells of 96 deepwell plates containing 0.3 mL per well of Delft medium with 2% (w/v) glucose and 0.75 g/L CSM-His-Ura. Delft medium base contains (per liter solution) 7.5 g ammonium sulfate, 14.4 g potassium phosphate monobasic (added from a 1 M stock solution adjusted to pH 6.5 with sodium hydroxide), 0.5 g magnesium sulfate heptahydrate, 3.6 mL of a trace metal solution (consisting of 130 g/L citric acid monohydrate, 0.574 g/L copper (II) sulfate pentahydrate, 8.07 g/L iron (III) chloride hexahydrate, 0.5 g/L boric acid, 0.333 g/L manganese (II) chloride, 0.2 g/L sodium molybdate, and 4.67 g/L zinc sulfate heptahydrate), and 1.0 ml of a vitamin solution (0.008 g/L biotin, 1.6 g/L calcium pantothenate, 0.008 g/L folic acid, 8 g/L myo-inositol, 1.6 g/L nicotinic acid, 0.8 g/L p-aminobenzoic acid, 1.6 g/L pyridoxal hydrochloride, 0.8 g/L riboflavin, 1.6 g/L thiamine hydrochloride, adjusted to pH […] with sodium hydroxide). Plates were grown for 16-24 hours at 30° C. in a plate shaker incubator maintained at 80% relative humidity and 900 rpm shaking (3 mm diameter throw). Ten microliters of preculture was then used to inoculate wells of 96 deepwell plates containing 0.3 mL per well of Delft medium with 2% (w/v) glucose, 0.75 g/L CSM-His-Ura, either 9.08 mM butyric acid or 3.44 mM hexanoic acid, and for divarin/divarinic acid, additionally 150 mM 2-(N-morpholino) ethanesulfonic acid (MES) at pH 5.5 and with the additional modification of the 1 M potassium phosphate monobasic stock in the Delft medium base also adjusted to pH 5.5 (for olivetol/olivetolic acid production from hexanoic acid, no MES was added and potassium phosphate monobasic solution used in the Delft medium base was at pH 6.5). […]

[4] = system: butyric acid; assay: Two plasmid screening system for relative AAE activity, butyric acid feeding; assay type: cell-based, Saccharomyces cerevisiae
Excerpt: as §1, §2

[5] = average production, LSC3-297/pLOA-049 plus AAE plasmid, Delft medium pH 5.5 with 150 mM MES, 9.08 mM butyric acid, 48 hours

## CCCCCc1cc(O)cc(O)c1C(=O)O [OA, olivetolic acid]
[1]; IPM overlay
  partitioning between overlay and aqueous phase: partitioned between the IPM and aqueous phases
[1]; diethyl sebacate overlay
  partitioning between overlay and aqueous phase: entirely partitioned into diethyl sebacate

## CCCc1cc(O)cc(O)c1 [divarin, 1,3-dihydroxy-5-propylbenzene]
[2]
  partitioning into monoester overlays: partition less effectively

## CCCc1cc(O)cc(O)c1C(=O)O [divarinic acid, 2,4-dihydroxy-6-propylbenzoic acid]
[2]
  partitioning into monoester overlays: partition less effectively

B1: At4CLL6: 4-coumarate--CoA ligase-like 6 from Arabidopsis thaliana (Uniprot Q84P24), SEQ ID NO: 11 (protein, listed as Arabidopsis thaliana)
chain: MAATHLHIPPNPKTQTSHQNPPFWFSSKTGIYTSKFPSLHLPVDPNLDAVSALFSHKHHGDTALIDSLTGFSISHTELQIMVQSMAAGIYHVLGVRQGDVVSLVLPNSVYFPMIFLSLISLGAIVTTMNPSSSLGEIKKQVSECSVGLAFTSTENVEKLSSLGVSVISVSESYDFDSIRIENPKFYSIMKESFGFVPKPLIKQDDVAAIMYSSGTTGASKGVLLTHRNLIASMELFVRFEASQYEYPGSSNVYLAALPLCHIYGLSLFVMGLLSLGSTIVVMKRFDASDVVNVIERFKITHFPVVPPMLMALTKKAKGVCGEVFKSLKQVSSGAAPLSRKFIEDFLQTLPHVDLIQGYGMTESTAVGTRGFNSEKLSRYSSVGLLAPNMQAKVVDWSSGSFLPPGNRGELWIQGPGVMKGYLNNPKATQMSIVEDSWLRTGDIAYFDEDGYLFIVDRIKEIIKYKGFQIAPADLEAVLVSHPLIIDAAVTAAPNEECGEIPVAFVVRRQETTLSEEDVISYVASQVAPYRKVRKVVMVNSIPKSPTGKILRKELKRILTNSVS
[3]
  Olivetol: 0.86 mg/L
  Olivetolic acid: 0.91 mg/L
[4]; [5]
  Divarin: 5.96 mg/L
  Divarinic acid: 5.24 mg/L
[4]; over CsAAE1
  activity as butyryl-CoA synthetases for divarin and divarinic acid production: several-fold activity improvements
